This passage reports percent of C2 in the pellet fraction and Kd results from paper PMC8584774.

The assay concerns the target α-cardiac actin (F-actin) (Sus scrofa). The assay can be described thus: co-sedimentation; high-speed cosedimentation; F-actin (0–40 µM) with 5 µM C0–C2 or 30 µM C2; 25 mM HEPES pH 7.3, 25 mM KCl, 5 mM MgCl2, 1 mM EGTA; 30 min at room temperature; 55,000 rpm 30 min; SDS-PAGE densitometry of supernatant and pellet; quadratic fit.

“MyBPC C2 wt (isolated IgI-like C2 domain of cardiac myosin-binding protein C) (from UniProt Q14896 362-452) (domain or fragment)” had a percent of C2 in the pellet fraction of under 2%.
Take “MyBPC C0–C2 wt (cardiac myosin-binding protein C, N-terminal fragment with subdomains C0 to C2) (from UniProt Q14896 1-452) (domain or fragment)”: the dissociation constant Kd (commonly the constant that tells how readily two partners part at equilibrium) worked out at 3.2 µM.
“MyBPC C0–C2 D389V (from UniProt Q14896 1-452) (domain or fragment)” returned an equilibrium dissociation constant (Kd) of 2.8 µM.
